Values quoted from earlier work, collected in patent US7713705B2, “Markers for differential diagnosis and methods of use thereof” (Biosite, Inc., priority 2002, dated 2010).
Like-named read-outs stand apart in the source and are kept apart here.

Tests used:
[1] = plasma, in mice
[2] = bloodstream of rats
[3] = in animals

C-reactive protein [CRP]
half-life (bloodstream): approximately 19 hours

CK-BB: brain-specific creatine kinase isoform, an 85 kDa cytosolic protein
half-life (in vivo): 60 to 300 min

Interleukin-1β [IL-1β]
biphasic physiological half-life, first phase (in vivo): 5 minutes
biphasic physiological half-life, second phase (in vivo): 4 hours

Interleukin-6 [IL-6]
half-life (bloodstream): 252 min

Malondialdehyde-modified low-density lipoprotein [MDA-modified LDL]
half-life [1]: less than 5 minutes

Phosphoglyceric acid mutase [PGAM]
half-life [2]: less than 2 hours

Platelet factor 4 [PF4]
biphasic half-life, first phase (plasma): 1 min
extended half-life, second phase (plasma): 20 min
half-life extended by the presence of heparin (plasma): 20 to 40 min
biphasic half-life, first phase (serum): 1 min
extended half-life, second phase (serum): 20 min
half-life extended by the presence of heparin (serum): 20 to 40 min

Platelet-derived growth factor [PDGF]
biphasic half-life, first phase [3]: approximately 5 minutes
biphasic half-life, second phase [3]: ~60 min

Prothrombin fragment 1+2 [F1+2]
half-life (plasma): approximately 90 minutes

S-100β: β subunit of S-100, a 21 kDa cytosolic Ca2+-binding protein; specific to the nervous system
biological half-life (in vivo): 2 hours

Tumor necrosis factor α [TNFα]
half-life (bloodstream): approximately 1 hours

thrombin-ATIII complex [TAT]
half-life (bloodstream): approximately 5 minutes

B1: β-thromboglobulin (protein, UniProt P02775 48-128, looked up)
Beta-thromboglobulin: GKEESLDSDLYAELRCMCIKTTSGIHPKNIQSLEVIGKGTHCNQVEVIATLKDGRKICLDPDAPRIKKIVQKKLAGDESAD
modifications: Beta-thromboglobulin
biphasic half-life, first phase (plasma): 10 min
extended half-life, second phase (plasma): 60 min
biphasic half-life, first phase (serum): 10 min
extended half-life, second phase (serum): 60 min

B2: neuron-specific enolase (protein, UniProt P09104 2-434, looked up)
Gamma-enolase: SIEKIWAREILDSRGNPTVEVDLYTAKGLFRAAVPSGASTGIYEALELRDGDKQRYLGKGVLKAVDHINSTIAPALISSGLSVVEQEKLDNLMLELDGTENKSKFGANAILGVSLAVCKAGAAERELPLYRHIAQLAGNSDLILPVPAFNVINGGSHAGNKLAMQEFMILPVGAESFRDAMRLGAEVYHTLKGVIKDKYGKDATNVGDEGGFAPNILENSEALELVKEAIDKAGYTEKIVIGMDVAASEFYRDGKYDLDFKSPTDPSRYITGDQLGALYQDFVRDYPVVSIEDPFDQDDWAAWSKFTANVGIQIVGDDLTVTNPKRIERAVEEKACNCLLLKVNQIGSVTEAIQACKLAQENGWGVMVSHRSGETEDTFIADLVVGLCTGQIKTGAPCRSERLAKYNQLMRIEEELGDEARFAGHNFRNPSVL
biological half-life (in vivo): 48 hours
